Test results taken from paper PMC10397247.
Blank lines part the entries; values can stand above or below the binder they belong to.

Columns and labels:
Assay in all cases: two-hybrid library CCNG1;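 note: natural log of median RNA to DNA barcode read ratio; higher means stronger binding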
[1] = biological target: T1, 4H683-bA
T1 chain: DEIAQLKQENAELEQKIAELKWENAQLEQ

[2] = biological target: T2, 4H1831-bA
T2 chain: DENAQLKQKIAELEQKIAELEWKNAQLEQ

[3] = biological target: T3, 4H2627-bA
T3 chain: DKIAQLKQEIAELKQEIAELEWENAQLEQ

[4] = biological target: T4, 4H3112-bA
T4 chain: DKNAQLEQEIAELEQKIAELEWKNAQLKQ

[5] = biological target: T5, 4H3427-bA
T5 chain: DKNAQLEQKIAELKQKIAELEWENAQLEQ

[6] = biological target: T6, 4H575-bA
T6 chain: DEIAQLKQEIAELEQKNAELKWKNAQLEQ

[7] = biological target: T7, 4H953-bA
T7 chain: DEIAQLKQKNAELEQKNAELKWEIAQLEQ

[8] = biological target: T8, 4H3926-bA
T8 chain: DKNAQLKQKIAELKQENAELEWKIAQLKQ

[9] = biological target: T9, 4H2702-bA
T9 chain: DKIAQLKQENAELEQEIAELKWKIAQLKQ

[10] = biological target: T10, 4H797-bA
T10 chain: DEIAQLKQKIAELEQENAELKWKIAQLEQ

[11] = biological target: T11, 4H346-bA
T11 chain: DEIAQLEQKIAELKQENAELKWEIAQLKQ

[12] = biological target: T12, 4H4073-bA
T12 chain: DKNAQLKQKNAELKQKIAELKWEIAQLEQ

[13] = biological target: T13, 4H2586-bA
T13 chain: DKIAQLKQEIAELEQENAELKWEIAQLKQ

[14] = biological target: T14, 4H2673-bA
T14 chain: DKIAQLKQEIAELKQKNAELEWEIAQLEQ

[15] = biological target: T15, 4H3010-bA
T15 chain: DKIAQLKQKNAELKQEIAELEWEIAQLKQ

[16] = biological target: T16, 4H780-bA
T16 chain: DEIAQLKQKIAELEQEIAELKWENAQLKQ

[17] = biological target: T17, 4H968-bA
T17 chain: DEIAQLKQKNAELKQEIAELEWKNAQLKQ

[18] = biological target: T18, 4H754-bA
T18 chain: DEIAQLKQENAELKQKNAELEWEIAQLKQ

[19] = biological target: T19, 4H170-bA
T19 chain: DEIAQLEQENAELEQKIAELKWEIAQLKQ

[20] = biological target: T20, 4H855-bA
T20 chain: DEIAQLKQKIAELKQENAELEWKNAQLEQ

[21] = biological target: T21, 4H457-bA
T21 chain: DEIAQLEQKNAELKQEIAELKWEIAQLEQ

[22] = biological target: T22, 4H918-bA
T22 chain: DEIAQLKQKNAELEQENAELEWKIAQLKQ

[23] = biological target: T23, 4H470-bH
T23 chain: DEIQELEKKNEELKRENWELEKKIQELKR

[24] = biological target: T24, 4H2745-bH
T24 chain: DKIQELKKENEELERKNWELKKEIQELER

[25] = biological target: T25, 4H363-bH
T25 chain: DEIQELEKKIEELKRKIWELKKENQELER

[26] = biological target: T26, 4H3907-bH
T26 chain: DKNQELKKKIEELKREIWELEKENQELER

[27] = biological target: T27, 4H344-bH
T27 chain: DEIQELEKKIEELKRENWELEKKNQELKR

[28] = biological target: T28, 4H3961-bH
T28 chain: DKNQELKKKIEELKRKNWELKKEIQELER

[29] = biological target: T29, 4H591-bA
T29 chain: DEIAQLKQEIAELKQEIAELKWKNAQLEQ

[30] = biological target: T30, 4H906-bA
T30 chain: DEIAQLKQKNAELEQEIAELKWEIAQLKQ

[31] = biological target: T31, 4H626-bA
T31 chain: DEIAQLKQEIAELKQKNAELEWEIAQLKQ

[32] = biological target: T32, P1A-bH
T32 chain: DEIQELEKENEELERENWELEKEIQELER

[33] = biological target: T33, 4H2944-bH
T33 chain: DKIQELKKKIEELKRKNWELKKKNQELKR

[34] = biological target: T34, 4H491-bH
T34 chain: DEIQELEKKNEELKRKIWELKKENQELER

[35] = biological target: T35, 4H48-bH
T35 chain: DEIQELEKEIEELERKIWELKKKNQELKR

[36] = biological target: T36, 4H342-bH
T36 chain: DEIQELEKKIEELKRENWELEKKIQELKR

[37] = biological target: T37, 4H2702-bN
T37 chain: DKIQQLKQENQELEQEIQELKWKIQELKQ

[38] = biological target: T38, 4H3427-bN
T38 chain: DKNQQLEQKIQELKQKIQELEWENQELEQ

[39] = biological target: T39, 4H2627-bN
T39 chain: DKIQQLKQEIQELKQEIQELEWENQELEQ

[40] = biological target: T40, 4H457-bN
T40 chain: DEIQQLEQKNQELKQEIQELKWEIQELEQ

[41] = biological target: T41, 4H575-bN
T41 chain: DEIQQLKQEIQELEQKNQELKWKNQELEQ

[42] = biological target: T42, 4H918-bN
T42 chain: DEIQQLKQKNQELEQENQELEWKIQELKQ

[43] = biological target: T43, 4H855-bN
T43 chain: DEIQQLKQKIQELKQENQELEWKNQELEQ

[44] = biological target: T44, 4H346-bN
T44 chain: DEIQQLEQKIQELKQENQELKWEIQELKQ

[45] = biological target: T45, 4H3112-bN
T45 chain: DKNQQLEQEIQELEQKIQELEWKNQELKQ

[46] = biological target: T46, 4H754-bN
T46 chain: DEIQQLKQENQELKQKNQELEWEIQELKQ

[47] = biological target: T47, 4H1831-bN
T47 chain: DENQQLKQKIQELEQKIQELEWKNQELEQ

[48] = biological target: T48, 4H968-bN
T48 chain: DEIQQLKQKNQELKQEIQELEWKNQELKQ

[49] = biological target: T49, 4H170-bN
T49 chain: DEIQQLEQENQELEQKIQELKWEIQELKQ

[50] = biological target: T50, 4H683-bN
T50 chain: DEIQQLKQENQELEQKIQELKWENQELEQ

[51] = biological target: T51, 4H953-bN
T51 chain: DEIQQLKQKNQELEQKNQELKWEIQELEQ

[52] = biological target: T52, 4H3926-bN
T52 chain: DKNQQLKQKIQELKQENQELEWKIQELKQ

[53] = biological target: T53, 4H2673-bN
T53 chain: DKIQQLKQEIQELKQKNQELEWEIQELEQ

[54] = biological target: T54, 4H3010-bN
T54 chain: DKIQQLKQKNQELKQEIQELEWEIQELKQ

[55] = biological target: T55, 4H797-bN
T55 chain: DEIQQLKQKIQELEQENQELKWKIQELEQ

[56] = biological target: T56, 4H2586-bN
T56 chain: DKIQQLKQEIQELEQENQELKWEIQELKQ

[57] = biological target: T57, 4H4073-bN
T57 chain: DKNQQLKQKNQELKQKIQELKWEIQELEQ

[58] = biological target: T58, 4H780-bN
T58 chain: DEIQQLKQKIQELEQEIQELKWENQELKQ

- interaction score [1]: -0.581
- interaction score [2]: -1.05
- interaction score [3]: 1.23
- interaction score [4]: -0.374
- interaction score [5]: 0.122
- interaction score [6]: -0.482
- interaction score [7]: 0.253
- interaction score [8]: 1.67
- interaction score [9]: 2.21
- interaction score [10]: -0.00525
- interaction score [11]: -1.19
- interaction score [12]: 1.89
- interaction score [13]: -0.588
- interaction score [14]: 1.01
- interaction score [15]: 2.15
- interaction score [16]: -0.413
- interaction score [17]: 2.27
- interaction score [18]: -0.923
- interaction score [19]: 0.744
- interaction score [20]: -0.225
- interaction score [21]: 1.56
- interaction score [22]: 0.927
B1: 4H170-bA (peptide)
chain: DEIAQLEQENAELEQKIAELKWEIAQLKQ

- interaction score [23]: 1.22
- interaction score [24]: -0.337
- interaction score [25]: -0.763
- interaction score [26]: -0.566
- interaction score [27]: -0.814
- interaction score [28]: -0.688
B2: 4H2745-bH (peptide)
chain: DKIQELKKENEELERKNWELKKEIQELER

- interaction score [29]: 1.45
- interaction score [30]: -1.23
- interaction score [31]: -1.82
- interaction score [32]: 0.0694
B3: 4H591-bA (peptide)
chain: DEIAQLKQEIAELKQEIAELKWKNAQLEQ

- interaction score [33]: -0.179
- interaction score [34]: -0.773
- interaction score [35]: 0.638
- interaction score [36]: 0.551
B4: 4H2944-bH (peptide)
chain: DKIQELKKKIEELKRKNWELKKKNQELKR

- interaction score [37]: 1.32
- interaction score [38]: -0.458
- interaction score [39]: -1.42
- interaction score [40]: -0.694
- interaction score [41]: 0.401
- interaction score [42]: -0.811
- interaction score [43]: 0.202
- interaction score [44]: -0.772
- interaction score [45]: 0.507
- interaction score [46]: -0.104
- interaction score [47]: -1.26
- interaction score [48]: 1.15
- interaction score [49]: 0.334
- interaction score [50]: -0.329
- interaction score [51]: -1.71
- interaction score [52]: 0.153
- interaction score [53]: -0.742
- interaction score [54]: 2.14
- interaction score [55]: -0.668
- interaction score [56]: -1.86
- interaction score [57]: 1.61
- interaction score [58]: -0.283
B5: 4H170-bN (peptide)
chain: DEIQQLEQENQELEQKIQELKWEIQELKQ
